The values that follow come from patent publication US20240294650A1 (Alector, published 2024).

One test deals with T1, human MerTK (human, UniProt Q12866 21-999).
T1 sequence: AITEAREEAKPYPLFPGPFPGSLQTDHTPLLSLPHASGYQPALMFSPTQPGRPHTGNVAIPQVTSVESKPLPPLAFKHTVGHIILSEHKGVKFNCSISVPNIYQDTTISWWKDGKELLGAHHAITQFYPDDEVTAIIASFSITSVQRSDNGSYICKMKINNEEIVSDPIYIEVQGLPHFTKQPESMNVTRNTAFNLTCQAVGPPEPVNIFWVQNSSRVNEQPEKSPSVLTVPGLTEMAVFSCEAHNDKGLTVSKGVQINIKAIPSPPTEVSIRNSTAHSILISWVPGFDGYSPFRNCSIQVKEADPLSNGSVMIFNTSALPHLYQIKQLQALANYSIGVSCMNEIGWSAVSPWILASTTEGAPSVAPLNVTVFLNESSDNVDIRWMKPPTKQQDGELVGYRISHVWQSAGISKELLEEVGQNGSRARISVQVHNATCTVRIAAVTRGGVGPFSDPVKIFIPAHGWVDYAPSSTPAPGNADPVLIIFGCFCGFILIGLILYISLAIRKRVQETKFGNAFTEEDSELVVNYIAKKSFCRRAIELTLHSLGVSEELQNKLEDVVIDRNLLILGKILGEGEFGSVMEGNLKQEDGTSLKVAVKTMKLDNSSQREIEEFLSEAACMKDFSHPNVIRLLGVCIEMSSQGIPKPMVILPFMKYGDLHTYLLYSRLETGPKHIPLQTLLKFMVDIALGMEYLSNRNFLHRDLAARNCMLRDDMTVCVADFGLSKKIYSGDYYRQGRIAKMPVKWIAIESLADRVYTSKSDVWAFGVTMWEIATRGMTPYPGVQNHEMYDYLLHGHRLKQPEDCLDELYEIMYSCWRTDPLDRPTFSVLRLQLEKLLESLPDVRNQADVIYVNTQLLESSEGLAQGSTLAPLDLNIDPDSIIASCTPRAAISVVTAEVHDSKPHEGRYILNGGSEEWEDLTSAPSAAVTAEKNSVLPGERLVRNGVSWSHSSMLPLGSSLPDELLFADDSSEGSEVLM
Put plainly: cell-based or functional assay.

Test [1] has as its target T2, Full Axl (ECD domain of human Axl) (human, UniProt P30530 26-451).
T2 construct: also called human Axl ECD
T2 sequence: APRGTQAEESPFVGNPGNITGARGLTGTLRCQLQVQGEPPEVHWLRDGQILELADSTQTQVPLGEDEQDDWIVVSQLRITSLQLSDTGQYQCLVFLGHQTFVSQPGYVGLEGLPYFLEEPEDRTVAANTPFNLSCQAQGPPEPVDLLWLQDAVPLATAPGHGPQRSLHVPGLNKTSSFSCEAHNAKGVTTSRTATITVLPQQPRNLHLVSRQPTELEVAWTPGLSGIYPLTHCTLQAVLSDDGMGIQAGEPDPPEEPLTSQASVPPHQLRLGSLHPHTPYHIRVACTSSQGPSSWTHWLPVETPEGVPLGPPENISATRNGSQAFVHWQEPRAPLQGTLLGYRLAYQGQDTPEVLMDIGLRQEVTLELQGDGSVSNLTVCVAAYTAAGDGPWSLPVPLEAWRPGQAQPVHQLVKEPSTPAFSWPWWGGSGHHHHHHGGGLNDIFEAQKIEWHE
The test is described as follows: SPR (data not shown). As to the method: Binding of anti-MerTK antibodies of the present disclosure to these domain-swapped chimera or deletion mutants was tested by Surface Plasmon Resonance (SPR) using Carterra LSA. Purified anti-MerTK antibodies were immobilized in duplicate on a HC30M chip (Carterra) by amine coupling, following the manufacturer's instructions (described previously).
Supernatants containing the constructs were diluted 1:1 with running buffer containing 0.5 mg/mL BSA (HBS-TE, Carterra; BSA, Sigma) and injected over the immobilized antibodies. The surface was regenerated with 10 mM Glycine pH2.0 after each construct injection. Sensorgrams were analyzed using Carterra Epitope software to identify patterns of construct binding. Loss of binding to MerTK constructs with domains deleted or swapped in from Axl and/or gain of binding to Axl constructs with MerTK domains swapped in were evaluated. Data from these studies were used to construct a domain binding map for anti-MerTK antibodies and their binding to various domains of human MerTK.

Test [2] concerns the target T3, Recombinant human MerTK-human Fc Chimera protein (human, UniProt Q12866 26-499, limits assumed).
T3 construct: bought construct; also called MerTK-Fc (R&D systems, Cat #391-MR-100)
T3 sequence: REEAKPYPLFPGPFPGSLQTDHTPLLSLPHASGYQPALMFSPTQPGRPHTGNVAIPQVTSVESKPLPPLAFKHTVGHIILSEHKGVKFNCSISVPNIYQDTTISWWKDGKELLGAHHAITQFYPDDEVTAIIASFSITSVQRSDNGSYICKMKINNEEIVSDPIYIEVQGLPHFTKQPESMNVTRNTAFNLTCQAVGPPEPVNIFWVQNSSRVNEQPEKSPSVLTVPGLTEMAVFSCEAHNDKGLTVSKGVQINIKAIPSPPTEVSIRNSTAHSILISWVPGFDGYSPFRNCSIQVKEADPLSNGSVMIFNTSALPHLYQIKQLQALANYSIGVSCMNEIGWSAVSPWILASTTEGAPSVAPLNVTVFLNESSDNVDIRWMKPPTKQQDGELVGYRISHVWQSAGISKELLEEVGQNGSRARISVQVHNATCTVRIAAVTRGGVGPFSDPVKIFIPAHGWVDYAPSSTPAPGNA
The test is described as follows: blocking ELISA, ProS-His on MerTK-Fc, Ab 66.6 nM, isotype=100%. As to the method: Briefly, rabbit anti-human IgG antibody (Jackson ImmunoResearch, Cat #309-005-008) was coated at 2 μg/ml onto high-protein binding plates at 4° C. overnight. After washing with 0.05% Tween20 in PBS three times, 5% BSA in PBS was added for 1 hour. Recombinant human MerTK-human Fe Chimera protein (R&D systems, Cat #391-MR-100) was added at 2 μg/ml for 1 hour and plates were washed before the addition of 40 μl of anti-MerTK hybridoma supernatants and 40 μl of His tag-conjugated recombinant Gas6 (R&D systems, Cat #885-GSB-050) at 3 μg/ml or His tag-conjugated recombinant ProS (R&D systems, Cat #9489-PS-100) at 20 μg/ml. After a further incubation for 1 hour, plates were washed and incubated for 1 hour with HRP-conjugated anti-6×His tagged antibody (Abcam, Cambridge, MA, Cat #ab1187). Plates were then washed and an HRP substrate, TMB, was added to develop the plates. The reaction was stopped by adding 50 μl 2N H₂SO₄ and the OD was measured using a spectrophotometer (BioTek).
Anti-MerTK antibodies were titrated to a final concentration from 66.6 nM to 4 pM and tested against anti-human MerTK antibody M6 (disclosed in WO2016/106221) or isotype control antibody.
(ELISA stands for enzyme-linked immunosorbent assay.)

Substitutions are numbered along the chain they refer to.

B1: MTK-219 (antibody, human IgG1, V domains shown)
VH: QVQLQQSGADLMKPGASVKLSCKATGNTFTGYWIEWVKQRPGHGLEWIGEILTGSGSTNYNERFKGKATFTADTSSNTAYMQLSSLTTEDSAIYYCAGSYFTNSWFPYWGQGSLVTVSA
VL: DIVLTQSPASLAVSLGQRATISCRASESVDSYGNSFMHWYQQKPGQPPKLLIYRAYTLESGIPARFSGSGSRTDFTLTINPVEADDVATYYCQQSNEDPRTFGGGTKLEIK
B1: the “Fold increase in PAKT over IgG control” value with human MerTK was 3.5 fold. The binding result in test [1] is listed as “no binding”. The “Percent ProS ligand binding” value in test [2] amounted to 100%.

B2: MTK-228 (antibody, human IgG1, V domains shown)
VH: QDQLQQSGPELVKPGASVKISCKASGYSFTSYYIHWVKQRPGQGLEWVGWIFPGNGNTKYNERFKGKATLTADTSSSTAYMQLSSLTSEDSAVYYCARLGLIYALDYWGQGTSVTVSS
VL: DAVMTQTPLSLPVSLGDQASISCRSSQSLENSNGNTYLHWYLQKPGQSPQLLIYRVSNRFSGVLDRFSGSGSGTDFTLKISRVEAEDLGVYFCLQVTHVPFTFGSGTKLEIK
As for B2, in the test with human MerTK, the “EC50 (nM), pAKT in SK-MEL-5 cells” value was 0.53 nM and the “Fold increase in PAKT over IgG control” value came out at 4.2 fold. The binding result in test [1] is reported as “no binding”. The “Percent ProS ligand binding” value in test [2] turned out to be 216%.

B3: MTK-226 (antibody, human IgG1, V domains shown)
VH: B2 VH with D2V, V48I, R63N, K65R
VL: B2 VL with N31S, K79Q
B3: in the test with human MerTK, the “EC50 (nM), pAKT in SK-MEL-5 cells” value is 0.53 nM and the “Fold increase in PAKT over IgG control” value was determined as 4.2 fold. Also, the binding result in test [1] is listed as “no binding”. Moreover, in test [2], the “Percent ProS ligand binding” value was 175%.

B4: MTK-218 (antibody, human IgG1, V domains shown)
VH: B2 VH with D2V, A16T, E46D, V48I, G56R, K59Q, R63K
VL: B2 VL with N35H, L64Q
Take B4: the “Fold increase in PAKT over IgG control” value in the test with human MerTK was 4.5 fold. Moreover, the binding result in test [1] is recorded as “no binding”. Besides, the “Percent ProS ligand binding” value in test [2] is 179%.

B5: MTK-223 (antibody, human IgG1, V domains shown)
VH: DVQLQESGPGLVKPSQSLSLTCSVTGYSITSGYYWNWIRQFPGNKLEWMGYISYDGTNNYNPSLKNRISITRDTSENQFFLKLNSVTTEDTATYFCVRGAGYWGQGTTLTVSS
VL: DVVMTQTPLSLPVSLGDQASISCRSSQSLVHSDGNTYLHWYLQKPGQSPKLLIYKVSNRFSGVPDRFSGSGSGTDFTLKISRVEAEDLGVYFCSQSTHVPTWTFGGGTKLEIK
In the case of B5, in the test with human MerTK, the “Fold increase in PAKT over IgG control” value came to 4.1 fold. Moreover, the binding result in test [1] is “no binding”. Also, the “Percent ProS ligand binding” value in test [2] was found to be 37.4%.

B6: MTK-227 (antibody, human IgG1, V domains shown)
VH: EVKLVESGGGLVQPGGSLSLSCAASGFTFTDNYMTWVRQPPGKALEWLGFSRNKANGYTTEYSASVKGRFTISRDSSQSILYLQMNALRAEDSGTYYCARFPPHYYAGGYFDVWGTGTTVTVSS
VL: DIQMTQSPASLSASVGETVTITCRASENIYSYLAWYQQKQGKSPQLLVYNAKTLAEGVPSRFSGSGSGTQFSLKINSLQPADFGSYYCQHYYRTPPTFGGGTKLEIK
On to B6, for which, in the test with human MerTK, the “EC50 (nM), pAKT in SK-MEL-5 cells” value was determined as 1.89 nM and the “Fold increase in PAKT over IgG control” value stood at 4.7 fold. In addition, the binding result in test [1] is given as “no binding”. For the same molecule, in test [2], the “Percent ProS ligand binding” value was determined as 84.5%.

B7: MTK-229 (antibody, human IgG1, V domains shown)
VH: QVQLQQSGPELVKPGASVKISCKASGYEFSRSWMNWVKQRPGKGLEWIGRIYPGDGDTNYKGKLKGQATLTADKSSSTAYMQLSSLTFEDSAVYFCARGGGYYYDSRYEGFVYWGQGTVVTVSA
VL: QIVLTQSPAIMSASPGEEVTMTCSASSSVSYMHWYQQKSGTSPKRWIYDTSKLASGVSGRFSGSGSGTSYSLTISSMEAEDAATYYCQQWSSNPPITFGAGTKLELK
For the molecule B7, in the test with human MerTK, the “EC50 (nM), pAKT in SK-MEL-5 cells” value came out at 1.89 nM and the “Fold increase in PAKT over IgG control” value turned out to be 4.1 fold. Moreover, the binding result in test [1] is recorded as “no binding”. Moreover, the “Percent ProS ligand binding” value in test [2] was found to be 117%.

B8: MTK-220 (antibody, V domains shown)
VH: EVQLVESGGGLVKPGGSLKLSCAASGFTFSDYGMHWVRQAPEKGLEWVAFISGGSGTIYYEDTVKGRFTISRDNAKNTLFLQMTSLRSEDTAMYYCTRGGNYFDYWGQGTTLTVSS
VL: NIMLTQSPSSLAVSAGEKVTMTCKSSQSVLYSSNQKNYLAWYQQKPGQSPKLLIYWASTRESGVPDRFTGSGSGTDFTLTISNVQAEDLAVYYCHQYFSSWTFGGGTKLEIK
Turning to B8, the “Fold increase in PAKT over IgG control” value in the test with human MerTK was 3.6 fold. Also, the binding result in test [1] was “no binding”. Further, the “Percent ProS ligand binding” value in test [2] came out at 63.4%.

B9: MTK-213 (antibody, human IgG1, V domains shown)
VH: QVQLQQPGAELVKPGASVKMSCKASGYTFTSYWITWVKQRPGQGHEWIGEIYPGIGSTNYNEKFKSKATLTVDTSSRTAYMQLSSLTSEDSAVYFCARGAYTKYYFDYWGQGTTLTVSS
VL: DIVMTQSHKFMSTSVGDRVSITCKASQDVGDAVAWYQQKPGQTPKLLIYWASTRHTGVPDRFTGSGSGTDFTLTISNVQSEDLADYFCQQYSSYLMYTFGGGTKLEIK
On to B9, for which the “Fold increase in PAKT over IgG control” value in the test with human MerTK came to 3.7 fold. In test [1], the binding result is “no binding”. For the same molecule, the “Percent ProS ligand binding” value in test [2] is 43.2%.

B10: MTK-207 (antibody, human IgG1, V domains shown)
VH: QVQLKESGPGLVAPSQSLSITCTVSGISLTSYGVSWVRQPPGKGLEWLGIIWGDGSTNYHSALISRLSISKDNSKSQVFLKLNSLQTDDTATYYCAKGRYGNYEDWYFDVWGTGTTVTVSS
VL: DIQMTQSPASLSASVGETVTITCRASGNIHNYLAWYQQKQGKSPQLLVYNAKTLAAGVPSRFSGSGSGTQYSLKINSLQPEDFGSYYCQHFWSIPLTFGAGTKLELK
With B10, the “Fold increase in PAKT over IgG control” value in the test with human MerTK amounted to 1 fold. Further, in test [2], the “Percent ProS ligand binding” value worked out at 95.5%.
